Laboratory results taken from IntAct's records for PubMed 19737519.

Experiments:
[1] = molecular target: nle1_yeast RSA4 (UniProt P25382)
[2] = molecular target: nle1_yeast RSA4 (UniProt P25382); remark: listed apart in the source

UniProt P25382, sequence (P25382 whole entry): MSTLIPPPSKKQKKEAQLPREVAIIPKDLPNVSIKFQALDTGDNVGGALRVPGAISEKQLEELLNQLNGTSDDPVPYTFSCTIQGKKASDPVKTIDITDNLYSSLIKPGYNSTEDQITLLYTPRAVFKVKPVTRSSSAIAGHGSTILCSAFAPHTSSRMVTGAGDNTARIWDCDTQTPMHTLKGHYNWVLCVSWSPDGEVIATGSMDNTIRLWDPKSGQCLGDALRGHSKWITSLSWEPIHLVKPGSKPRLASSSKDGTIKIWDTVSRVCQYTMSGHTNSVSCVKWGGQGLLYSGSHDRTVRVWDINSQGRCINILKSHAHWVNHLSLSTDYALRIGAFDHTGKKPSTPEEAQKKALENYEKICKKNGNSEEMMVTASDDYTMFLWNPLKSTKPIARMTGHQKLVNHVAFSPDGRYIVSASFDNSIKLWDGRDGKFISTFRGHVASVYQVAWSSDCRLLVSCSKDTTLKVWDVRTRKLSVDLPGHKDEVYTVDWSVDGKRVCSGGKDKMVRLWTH

| effect of a mutation on the interaction [1] | effect of a mutation on the interaction [2] | Substance |
| --- | --- | --- |
| disrupting interaction | decreasing interaction | Midasin (Saccharomyces cerevisiae), Q12019 S4712A;S4714A |
| decreasing interaction |  | Midasin (Saccharomyces cerevisiae), Q12019 S4712T |
